In PMC7409020 (2020):
Square brackets hold non-standard residues; d marks the D form. Ends that are not written are not given here.

B1: RI-A-CooP (peptide)
peptide: [dA][dV]G[dL]G[dS][dL]G[dC][dA]-NH2
modifications: N-terminus assumed
SMILES: CC(C)C[C@@H](NC(=O)CNC(=O)[C@H](NC(=O)[C@@H](C)N)C(C)C)C(=O)NCC(=O)N[C@H](CO)C(=O)N[C@H](CC(C)C)C(=O)NCC(=O)N[C@H](CS)C(=O)N[C@H](C)C(N)=O

Target: recombinant N-terminal His6-tagged human FABP3 (human, NT-650-NHS red amine-reactive fluorescent dye (in the MST experiments only))
Assay: MST

recombinant N-terminal His6-tagged human FABP3 (human, NT-650-NHS red amine-reactive fluorescent dye (in the MST experiments only)), sequence (P05413 whole entry): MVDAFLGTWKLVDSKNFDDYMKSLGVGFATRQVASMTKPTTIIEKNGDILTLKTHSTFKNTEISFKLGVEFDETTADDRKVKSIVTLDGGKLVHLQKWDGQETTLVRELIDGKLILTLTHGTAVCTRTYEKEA

| Binder | Kd |
| --- | --- |
| ACALSGLGVA-NH2 [A-[Ala^2]CooP] | 90 nM |
| ACGASGLGVA-NH2 [A-[Ala^3]CooP] | 250 nM |
| B1 | 24000 nM |
| ACGLSGAGVA-NH2 [A-[Ala^6]CooP] | 190 nM |
| ACGLAGLGVA-NH2 [A-[Ala^4]CooP] | 110 nM |
| ACGLSGLGAA-NH2 [A-[Ala^8]CooP] | 120 nM |
